{
  "source": "patent US9074002B2",
  "about": "“PTP1B inhibitors” (Cold Spring Harbor Laboratory, priority 2009, dated 2015)",
  "molecules": {"B1": {"name": "scFv45: conformation-sensor scFv binding PTP1B-OX, SEQ ID NO: 26 and 78; expressed as intrabody (protein)", "scFv": "MKKTAIAIAVALAGFATVAQAALTQPSSVSANPGGTVKITCSGSSSAYGYGWYQQKSPGSAPVTVIYNNNKRPSNIPSRFSGSKSGSTGTLTITGVQAEDEAVYFCGSEDSSTDAIFGAGTTLTVLGQSSRSSTVTLDESGGGLQAPGGALSLVCKASGFTFSSYDMGWIRQAPGKGLEYVAGITDNGRYASYGSAVDGRATISRDNGQSSVRLQLNNLRAEDTGTYYCARDDGSGWTGNSIDAWGHGTEVIVSSTSGQAGQHHHHHHGAYPYDVPDYAS"}},
  "key": {"[1]": {"system": "phosphorylation of AKT activation loop at Threonine 308 (T308)", "assay": "AKT phosphorylation (T308) after insulin stimulation in cells overexpressing scFv45", "assay_type": "cell-based", "details": "cells overexpressing scFv45, insulin stimulated for different time periods; FIG. 13", "description": "Applicant assessed the role of PTP1B-OX specific intrabody on the downstream readout of insulin signaling by following the phosphorylation (activation) status of AKT."}, "[2]": {"system": "endogenous PTP1B in Cos1 cells", "assay": "Colocalization of intrabody45 and PTP1B in Cos1 cells by immunofluorescence", "assay_type": "cell-based", "details": "FIG. 14", "experimental": "In order to verify the interaction between PTP1B-OX and scFv45 in mammalian cells, Applicant determined whether PTP and scFv45 colocalized after insulin stimulation, using immunofluorescence. Cos1 cells were grown on cover slips and transfected with scFv45 using Fugene6 as the transfection reagent according to manufacturer's instructions. The cells were serum starved 24 hours post transfection, for 16 hours at 37° C. and then stimulated with 25 nM insulin (in growth medium without serum) or left untreated. Following insulin treatment the cells were washed 2× with PBS and fixed with 5% formalin (in PBS) for 15 minutes at room temperature. The cells were washed with PBS three times at room temperature. The fixed cells were permeabilized with 0.5% Triton-X100 (in PBS) for 5 minutes at room temperature. Cells were rinsed with Wash Buffer [PBS, pH 7.4 with 0.1% BSA, 0.2% TritonX-100, 0.05% Tween-20 and 0.05% sodium azide] at room temperature. […] To quantify colocalization of PTP1B and intrabody45 from the merged images, 15 individual images were analyzed by Zeiss (LSM 710) Colocalization Viewer Software. The degree of colocalization of PTP1B and intrabody45 in each cell was expressed as colocalization coefficients that measure relative number of colocalizing pixels for the respective fluorophores for PTP1B and intrabody45, as compared to the total number of pixels. […]"}},
  "data": [
    {"molecule": "B1", "values": [
      {"measurement": "AKT phosphorylation at residue Threonine 308 (T308)", "setting": "[1]", "value": "enhanced and sustained AKT phosphorylation"},
      {"measurement": "colocalization between PTP1B and intrabody", "setting": "[2]; Cos1 cells without insulin stimulation", "value": "not significant"},
      {"measurement": "colocalization between PTP1B and intrabody", "setting": "[2]; Cos1 cells, stimulated with 25 nM insulin", "value": "Strong colocalization"}
    ]}
  ]
}
